We go through five molecules from publication PMC5683694 (ACS Omega, 2017).

One series concerns live cells. Particulars: fluorescence correlation microscopy on live cells; cited from earlier work.
The conditions of series [1]: cited from earlier work.
Series [2] concerns the target Grb7-SH2 domain (growth factor receptor bound protein 7, residues 415-532) (UniProt Q14451 415-532). Kind of series: thermal shift assay.

Positions of bridges follow the written chain, without caps; N, C: chain ends. No end group written: not given here.

Grb7-SH2 domain (growth factor receptor bound protein 7, residues 415-532), sequence (Q14451 415-532): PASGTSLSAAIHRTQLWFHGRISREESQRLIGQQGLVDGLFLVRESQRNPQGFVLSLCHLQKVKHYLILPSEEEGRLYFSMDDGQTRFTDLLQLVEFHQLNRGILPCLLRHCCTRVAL

Consider NRRMKWKK, for which the translocation efficiency entry in the series with live cells is recorded as “poor translocation efficiency”.

Consider FQNRRMKWKK, for which, in series [1], the “uptake compared to that of the full-length Penetratin sequence” value is on record as “negligible uptake”.

In the case of {CH2CO}-WFEGYDNTFPCRQIKIWFQNRRMKWKK (thioether N-11) [G7-18NATE-P16 (cyclo-(CH2CO-WFEGYDNTFPC-RQIKIWFQNRRMKWKK))], the “change in Tm” value in series [2] amounted to 0.74 °C.

As to {CH2CO}-WFEGYDNTFPCRRMKWKK (thioether N-11) [G7-18NATE-P7 (cyclo-(CH2CO-WFEGYDNTFPC-RRMKWKK))], the “change in Tm” value in series [2] turned out to be 1.8 °C.

For {CH2CO}-WFEGYDNTFPC (thioether N-11) [G7-18NATE (cyclo-CH2CO-WFEGYDNTFPC)], the “change in Tm” value in series [2] was found to be 0.8 °C.
